Data as given in publication PMC10104074.

Molecular target: globupain zymogen (wild-type, signal-free, C-terminal 6xHis) (unclassified Archaeoglobus species (metagenome, Soria Moria hydrothermal vent field))
Assay: SEC + AUC

- stoichiometry N: 2
Substance: globupain zymogen (wild-type, signal-free, C-terminal 6xHis) (enzyme)
